These are literature values, as cited in PMC3791837.

The term Kd denotes a measure of binding affinity in units of concentration.

This data set concerns the target FcγRIIA (Homo sapiens) (UniProt P12318). The data set can be described thus: confocal analysis of transfected cells.
Chain of UniProt P12318 (P12318 34-217): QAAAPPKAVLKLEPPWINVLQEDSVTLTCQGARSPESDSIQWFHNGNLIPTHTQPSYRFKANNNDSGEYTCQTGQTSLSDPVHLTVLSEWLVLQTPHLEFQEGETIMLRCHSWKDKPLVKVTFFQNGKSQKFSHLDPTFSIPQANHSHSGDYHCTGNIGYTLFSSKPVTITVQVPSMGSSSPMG

As for CRP (from UniProt P02741), the Kd is 3.7 µM.
